# Experimental data: paper PMC3140484
# Tests used:
# [1] = test system: CopR (CgtR9) response regulator, unphosphorylated (Corynebacterium glutamicum ATCC 13032); test: EMSA; settings: unphosphorylated; apparent Kd; 50 mM Tris-HCl pH 7.5, 50 mM KCl, 10 mM MgCl2, 0.5 mM EDTA, 10% glycerol, room temperature 30 min; 50 mM acetylphosphate preincubation (60 min) for P2; DNA …
# [2] = test system: CopR (CgtR9) response regulator, preincubated with acetylphosphate (Corynebacterium glutamicum ATCC 13032); test: EMSA; settings: 50 mM Tris-HCl pH 7.5, 50 mM KCl, 10 mM MgCl2, 0.5 mM EDTA, 10% glycerol, room temperature 30 min; 50 mM acetylphosphate preincubation (60 min) for P2; DNA …
substance,measurement,setting,value
"copR promoter Kd probe, 90 bp",Kd,[1],2.3 µM
same,Kd,[2],0.4 µM
